Data on two substances can be found in article PMC6981184.

One assay concerns the target soluble CD4 (sCD4) (UniProt P01730). Briefly: SPR. On the technique in general: In SPR one partner is held on a chip, and binding of the other changes the refractive index at the surface.
The target of a further assay is soluble CD4 (UniProt P01730). Briefly: SPR.
The target of assay [1] is BG505 N332 SOSIP gp140 envelope trimer (unmutated BG505 SOSIP) (HIV-1 (clade A, BG505)). Briefly: negative-stain electron microscopy.

A word on the koff: it is the rate constant with which the complex falls apart. Read a low koff as a long-lived complex. A word on the kon: it is the second-order rate constant of association. Low readings indicate slower complex formation, high ones faster complex formation. Take “BG505 SOSIP.664 (unmutated BG505 N332 SOSIP gp140 trimer) (complex)”: in the assay with soluble CD4 (sCD4), the koff amounted to 0.00061 s⁻¹ and the kon was found to be 11200 M⁻¹ s⁻¹.
A word on the Kd: it is the constant that tells how readily two partners part at equilibrium. A high value points to weaker binding. Usually stoichiometry N stands for the number of molecules, sites or subunits per partner or assembly. “BG505 N332 SOSIP gp140 envelope trimer (unmutated BG505 SOSIP) (complex)” yielded a Kd with soluble CD4 of 0.0679 µM. In assay [1], this substance yielded a stoichiometry N of 3.
